From patent US20260209386A1 (MYTHIC THERAPEUTICS, published 2026)
Positions count from the first letter of the chain named.

T1: Human PTK7 Protein, His Tag, Acro Biosystems (human, UniProt Q13308 31-704)
T1 construct: Bought protein; also called CCK4; not shown: His tag
T1 sequence: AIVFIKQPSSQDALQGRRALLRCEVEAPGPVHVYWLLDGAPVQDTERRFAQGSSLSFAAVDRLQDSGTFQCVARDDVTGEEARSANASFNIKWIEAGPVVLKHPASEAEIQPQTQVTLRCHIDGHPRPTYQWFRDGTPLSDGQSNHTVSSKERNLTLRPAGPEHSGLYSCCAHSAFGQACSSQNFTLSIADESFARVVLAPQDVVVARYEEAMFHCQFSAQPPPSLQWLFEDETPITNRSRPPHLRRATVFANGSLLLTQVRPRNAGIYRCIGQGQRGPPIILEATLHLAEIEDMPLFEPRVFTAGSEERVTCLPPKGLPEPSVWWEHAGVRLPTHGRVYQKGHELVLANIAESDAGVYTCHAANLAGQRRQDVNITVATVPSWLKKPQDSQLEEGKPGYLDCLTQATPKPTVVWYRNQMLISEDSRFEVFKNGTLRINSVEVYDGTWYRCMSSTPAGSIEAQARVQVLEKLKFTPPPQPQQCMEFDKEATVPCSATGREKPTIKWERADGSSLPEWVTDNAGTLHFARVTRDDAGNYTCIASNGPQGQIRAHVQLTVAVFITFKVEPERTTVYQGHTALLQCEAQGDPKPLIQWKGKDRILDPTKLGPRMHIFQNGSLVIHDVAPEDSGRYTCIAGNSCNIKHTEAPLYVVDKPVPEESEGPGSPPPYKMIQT

T2: Human PTK7 Protein, His Tag, Acro Biosystems (human, UniProt Q13308 31-704)
T2 construct: Bought recombinant protein; also called CCK4; not shown: His tag
T2 sequence: T1 sequence

B1: MYT11182 (antibody, V domains shown)
VH: EVQLVESGGGLVQPGGSLRLSCTASGIHLSSYVMGWVRQAPGKGLEWVGYIYGGGGTYYATWARGRFTISRDTSKNTVYLQMNSLRAEDTAVYFCARAAADFYFNLWGQGTLVTVSS
VL: EIVMTQSPSTLSASVGDRVIITCQASQSISSYLAWYQQKPGKAPKLLIYDISDLASGVPSRFSGSGSGAEFTLTISSLQPDDFATYYCQSYYWISNSGAAFGQGTKLTVL
notes: HC variant of MYT9460, sub at HCV pos 28 (H1 03)
B2: MYT11249 (antibody, V domains shown)
VH: B1 VH with H28D
VL: B1 VL with A100H
notes: LC variant of MYT9460, sub at LCV pos 100 (L3 12)
B3: MYT11221 (antibody, V domains shown)
VH: B1 VH with H28D
VL: B1 VL with A25H
notes: LC variant of MYT9460, sub at LCV pos 25 (L1 02)
B4: MYT11246 (antibody, V domains shown)
VH: B1 VH with H28D
VL: B1 VL with S97H
notes: LC variant of MYT9460, sub at LCV pos 97 (L3 09)
B5: MYT11197 (antibody, V domains shown)
VH: B1 VH with H28D, T57H
VL: B1 VL
notes: HC variant of MYT9460, sub at HCV pos 57 (H2 08)
B6: MYT11210 (antibody, V domains shown)
VH: B1 VH with H28D, A100H
VL: B1 VL
notes: HC variant of MYT9460, sub at HCV pos 100 (H3 05)
B7: MYT11225 (antibody, V domains shown)
VH: B1 VH with H28D
VL: B1 VL with I29H
notes: LC variant of MYT9460, sub at LCV pos 29 (L1 06)
B8: MYT11248 (antibody, V domains shown)
VH: B1 VH with H28D
VL: B1 VL with A99H
notes: LC variant of MYT9460, sub at LCV pos 99 (L3 11)
B9: MYT11236 (antibody, V domains shown)
VH: B1 VH with H28D
VL: B1 VL with A55H
notes: LC variant of MYT9460, sub at LCV pos 55 (L2 06)
B10: MYT11244 (antibody, V domains shown)
VH: B1 VH with H28D
VL: B1 VL with S95H
notes: LC variant of MYT9460, sub at LCV pos 95 (L3 07)
B11: MYT11195 (antibody, V domains shown)
VH: B1 VH with H28D, G55H
VL: B1 VL
notes: HC variant of MYT9460, sub at HCV pos 55 (H2 06)
B12: MYT11222 (antibody, V domains shown)
VH: B1 VH with H28D
VL: B1 VL with S26H
notes: LC variant of MYT9460, sub at LCV pos 26 (L1 03)
B13: MYT11196 (antibody, V domains shown)
VH: B1 VH with H28D, G56H
VL: B1 VL
notes: HC variant of MYT9460, sub at HCV pos 56 (H2 07)
B14: MYT11245 (antibody, V domains shown)
VH: B1 VH with H28D
VL: B1 VL with N96H
notes: LC variant of MYT9460, sub at LCV pos 96 (L3 08)
B15: MYT11224 (antibody, V domains shown)
VH: B1 VH with H28D
VL: B1 VL with S28H
notes: LC variant of MYT9460, sub at LCV pos 28 (L1 05)
B16: MYT11184 (antibody, V domains shown)
VH: B1 VH with H28D, S30H
VL: B1 VL
notes: HC variant of MYT9460, sub at HCV pos 30 (H1 05)
B17: MYT11240 (antibody, V domains shown)
VH: B1 VH with H28D
VL: B1 VL with Y91H
notes: LC variant of MYT9460, sub at LCV pos 91 (L3 03)
B18: MYT11194 (antibody, V domains shown)
VH: B1 VH with H28D, G54H
VL: B1 VL
notes: HC variant of MYT9460, sub at HCV pos 54 (H2 05)
B19: MYT11253 (antibody, V domains shown)
VH: B1 VH with H28D
VL: B1 VL with N96A
notes: LC variant of MYT9460, Ala sub at LCV pos 96 (L3 08)
B20: MYT11213 (antibody, V domains shown)
VH: B1 VH with H28D, Y103H
VL: B1 VL
notes: HC variant of MYT9460, sub at HCV pos 103 (H3 08)
B21: MYT11229 (antibody, V domains shown)
VH: B1 VH with H28D
VL: B1 VL with L33H
notes: LC variant of MYT9460, sub at LCV pos 33 (L1 10)
B22: MYT11238 (antibody, V domains shown)
VH: B1 VH with H28D
VL: B1 VL with Q89H
notes: LC variant of MYT9460, sub at LCV pos 89 (L3 01)
B23: MYT11180 (antibody, V domains shown)
VH: B1 VH with G26H, H28D
VL: B1 VL
notes: HC variant of MYT9460, sub at HCV pos 26 (H1 01)
B24: MYT11247 (antibody, V domains shown)
VH: B1 VH with H28D
VL: B1 VL with G98H
notes: LC variant of MYT9460, sub at LCV pos 98 (L3 10)
B25: MYT11192 (antibody, V domains shown)
VH: B1 VH with H28D, Y52H
VL: B1 VL
notes: HC variant of MYT9460, sub at HCV pos 52 (H2 03)
B26: MYT11193 (antibody, V domains shown)
VH: B1 VH with H28D, G53H
VL: B1 VL
notes: HC variant of MYT9460, sub at HCV pos 53 (H2 04)
B27: MYT10935 (antibody, V domains shown)
VH: EVQLVESGGGLVQPGGSLRLSCTASGFSLSNYVMNWVRQAPGKGLEWVGIIDSSGSTYYASWAKGRFTISRDTSKNTVYLQMNSLRAEDTAVYFCARGLYLWGQGTLVTVSS
VL: EIVMTQSPSTLSASVGDRVIITCQSSQSVYNNNLLAWYQQKPGKAPKLLIYYTSHLASGVPSRFSGSGSGAEFTLTISSLQPDDFATYYCQGGYNGNIYAFGQGTKLTVL
notes: MYT9345 variant, His at VL pos 55 (L2 04)
B28: MYT10939 (antibody, V domains shown)
VH: B27 VH
VL: B27 VL with H55N, Q91H
notes: MYT9345 variant, His at VL pos 91 (L3 01)
B29: MYT10942 (antibody, V domains shown)
VH: B27 VH
VL: B27 VL with H55N, Y94H
notes: MYT9345 variant, His at VL pos 94 (L3 04)
B30: MYT10943 (antibody, V domains shown)
VH: B27 VH
VL: B27 VL with H55N, N95H
notes: MYT9345 variant, substitution at VL pos 95 (L3 05), no Ala mark
B31: MYT10937 (antibody, V domains shown)
VH: B27 VH
VL: B27 VL with H55N, A57H
notes: MYT9345 variant, His at VL pos 57 (L2 06)
B32: MYT10946 (antibody, V domains shown)
VH: B27 VH
VL: B27 VL with H55N, I98H
notes: MYT9345 variant, His at VL pos 98 (L3 08)
B33: MYT10944 (antibody, V domains shown)
VH: B27 VH
VL: B27 VL with H55N, G96H
notes: MYT9345 variant, His at VL pos 96 (L3 06)
B34: MYT10950 (antibody, V domains shown)
VH: B27 VH
VL: B27 VL with H55N, N95A
notes: MYT9345 variant, Ala at VL pos 95 (L3 05)
B35: MYT10949 (antibody, V domains shown)
VH: B27 VH
VL: B27 VL with H55N, T108E, V109I, L110K
notes: MYT9345 LC variant; substitution position printed as n/a
B36: MYT10936 (antibody, V domains shown)
VH: B27 VH
VL: B27 VL with H55N, L56H
notes: MYT9345 variant, His at VL pos 56 (L2 05)

Molecular target: T1, Human PTK7 Protein, His Tag, Acro …
Test: BLI (Octet), antibody on anti-human Fc sensor, 50 nM PTK7, dissociation at pH 7.4 or 5.4; 1 = pH dependent binding relative to parent

Row | Binder | binding result
1 | B1 | binds
2 | B2 | binds
3 | B3 | binds
4 | B4 | binds
5 | B5 | binds
6 | B6 | binds
7 | B7 | binds
8 | B8 | binds
9 | B9 | binds
10 | B10 | binds
11 | B11 | binds
12 | B12 | binds
13 | B13 | binds
14 | B14 | binds
15 | B15 | binds
16 | B16 | binds
17 | B17 | binds
18 | B18 | binds
19 | B19 | binds
20 | B20 | binds
21 | B21 | binds
22 | B22 | binds
23 | B23 | binds
24 | B24 | binds
25 | B25 | binds
26 | B26 | binds

Molecular target: T2, Human PTK7 Protein, His Tag, Acro …
Test: BLI (Octet), antibody on anti-human Fc sensor, 50 nM PTK7 at pH 7.4, dissociation at pH 7.4 or 5.4; 1 = pH dependent binding relative to parent

Row | Binder | binding result
27 | B27 | binds
28 | B28 | binds
29 | B29 | binds
30 | B30 | binds
31 | B31 | binds
32 | B32 | binds
33 | B33 | binds
34 | B34 | binds
35 | B35 | binds
36 | B36 | binds
